Substitutions are numbered along the chain they refer to.
B1: Antibody 8 (SS6V8-D3) (antibody, V domains shown)
VH: EVQLVESGGDLVQPGGSLRLSCSASGFTFSTYAMHWVRQAPGKGLDYVASIASDGGITTYADSVKGRFTISRDNSKNALYLQMSSLRVEDTAVYYCVKDSLTSVTTIFDCWGQGTLVTVSS
VL: DIQMTQSPSSLSASVGDSVTITCRASQNINSYLHWYQQKPGKAPKLLIYTASSLQSGVPSRFSASGSGTHFTLTISSLQPEDFATYYCQQSYTDPYTFGQGSKVEIK
B2: Antibody 18 (SS6V18-E3) (antibody, V domains shown)
VH: EVQLVESGGGLVQPGGSLRLSCAASGFTFSSYAMHWVRQVPGKGLEYVSSITSNGGGTFYADSVKGRFTISRDNSKNTVYLQMGSLSTEDMALYYCAREGIQGWVTYFDYWGRGILVTVSS
VL: DIQMTQSPSSLSASIGDRVTITCRASQSISTNLNWYQQKPGKAPKLLIYAASSLPSGVPSRFSGSGSGTDFTLTISSLQPEDFANYLCQQTYTTPQYSFGQGTKVEIK
B3: Antibody 15 (SS6V15-F6) (antibody, V domains shown)
VH: EVQLVESGGGVVQPGRSLRLSCAASGFTFSSYAIHWVRQAPGKALEWVALISYDGRTKYYADSVKGRFTISRDNSKNTLYLQMNSLRAEDTAVYYCARLDIIITPPANDYWGQGTLVTVSS
VL: EIVLTQSPGTLSLSPGDRATVSCRASQIVSSNYLAWYQQKPGQVPRLLIYDASSRATGIPDRFSGSGSGTDFTLTISRLEPEDFAVYYCHQYGDSRRTFGQGTKVDIK
B4: Antibody 14 (SS6V14-F2) (antibody, V domains shown)
VH: QVQLQESGPGLVKPSETLSLTCTVSGGPISSYYWTWIRQPPGKGLEWIGYIYYSGSTNYSPSLKSRVTMSLETSKNQFSLKLTSVTAADTAVYYCARDPLAEGAASSGFDNWGQGTLVTVSS
VL: DIQMTQSPSSLSASVGDRVTITCRASQSISSYLNWYQQKPGKAPKLLIYAASALQSGVPSRFSGSGSGTHFSLTINGLQPEDFATYSCQQSYTTPRTFGPGTKVEIK
B5: Antibody 2 (SS6V2-G1) (antibody, V domains shown)
VH: EVQLVESGGGLVQPGGSLRLSCAASGFTVSSNYMSWVRQAPGKGLEWVSVIYSGGSTFYADSVKGRFTISRDNSKNTLYLQMNSLRAEDTAVYYCARELRHYFDYWGQGTLVTVSS
VL: DIQLTQSPSFLSASVGDRVTITCRASQGISSYLAWYQQKPGKAPKLLIYAASTLQSGVPSRFSGSGSGTEFTLTISSLQPEDFATYYCQQLNSYPPYSFGQGTKVEIK
B6: Antibody 6 (SS6V6-C4) (antibody, V domains shown)
VH: EVQLVESGGGLVQPGGSLRLSCSASGFTFNTYAMHWVRQAPGKGPEYVSGISSNGGITDYADSVKGRFTISRDNSKNTLYLQMSSLRPEDTAVYYCVKDSLATVVTLLSYWGQGTLVTVSS
VL: DIQMTQSPSSLSASVGDRVTITCRASQTISSYLNWFQQKPGKAPKLLIYAASSLQSGVPSRFSGSGSGTDFTLTISSLQPEDFAIYYCQQSYSTPGTFGQGTKVEIK
B7: Antibody 19 (SS6V19-F4) (antibody, V domains shown)
VH: EVQLVQSGSELKKPGASVKVSCKVSGYTFTDYNMNWVRQAPGQGLEWMGWINTNTGIPTYAQGFTGRFVFSLDTSVSTAYLQISSLKAEDTAIYYCARDGGWQLPYWYFDLWGRGTLVTVSS
VL: EIVMTQSPATLSVSPGERVTLSCRASYSFSSSLAWYQQKPGQAPRLLIYGTSTRATGVPVRFSGSGSGTEFTLTISSLQSEDLAVYYCQQYYSWPLTFGQGTKVDIK
B8: Antibody 9 (SS6V9-D11) (antibody, V domains shown)
VH: QVQLQESGPGLVKPSGTLSLTCAVSGGSISSNIWWSWVRQPPGKGLEWIGDIYHSGSTNYNPSLEGRVTISIDKSKNQFSLRLTSLTAADTAVYYCARAISQQYFDSSVLGYWGQGILVTVSS
VL: EIVMTQSPATLSVSPGERVTLSCRASQSVVTNLAWYQQKPGQAPRLLIYGASTRATGIPARFSGSGSGTEFTLTISSLQSEDFAIYHCQQYNNWPGYTFGQGTKVDIK
B9: Antibody 12 (SS6V12-E11) (antibody, V domains shown)
VH: EVQLVESGGGLVKPGGSLRLSCAASGFTFSTYNMNWVRQAPGKGLEWVSSISSSSSFMFYADSVKGRFTISRDNANNSLYLQMNSLRAEDTAVYYCARDYYDNSGYYYYGMDVWGQGTTVTVSS
VL: DIQMTQSPSSLSASVGDRVTITCRASQSIRTYLSWYQQKPGKAPELLIYAASNLQSGVPSRFSGSGSGTDFTLTISSLQPEDFATYYCLQTYSTPQITFGQGTRLEIE
B10: Antibody 5 (SS6V5-C3) (antibody, V domains shown)
VH: EVQLVQSGAEVRKPGESLKISCKTSGYTFTHYWIGWVRQLPGKGLEWMGIIYPDDSDTKYSPSFQGQITISADKSISTAYLQWNSLKASDTAMYFCATADIVVGSNFFDHWGQGTLVTVSS
VL: DIQMTQSPSTLSASVGDRVTITCRASQSISTWLAWYQQKPGKPPKVLIYKASILESGVSSRFSGSGSGTEFTLTISSLQPDDFATYYCQHYNSYIKTFGQGTKVEIK
B11: Antibody 7 (SS6V7-C5) (antibody, V domains shown)
VH: EVQLVQSGAEVKKPGESLKISCKGSENIFSGYWIGWVRQMPGKGLEWMGIIYPDDSDTRYNPSFQGQVTISADQSISTAYLQWSRLKASDTAMYYCARHLGGGSSWPIDYWGQGTLVTVSS
VL: DIQMTQSPSSLSASVGDRVTITCRANQGISNYLAWFQQKPGKAPKSLIYAASSLQSGVPSKFSGNRSGTDFTLTISSLQPEDFATYYCQQYSSYPFTFGGGTKVEIK
B12: Antibody 10 (SS6V10-E1) (antibody, V domains shown)
VH: EVQLVQSGAEVKKPGESLKISCQGSEDSFTGYWIGWVRQLPGKGLEWMGFIYPDDGDTRYSPAFQGLVTFSADKSITTAYLQWSSLKASDTAIYFCARHLGGGSSWPIDSWGQGTQVTVSS
VL: B11 VL with N26S, S30R, N65S, R66G, S67Y, S76N, S92N, S93N, Y94H
B13: Antibody 1 (SS6V1-B5) (antibody, V domains shown)
VH: EVQLVESGGGLVQPGGSLRLSCAASGFILRNYEMQWVRQAPGKGLEWVSVIGNTGGTFYAGSVKGRFTISRENAKNSLYLQMNSLRAEDTALYYCARVTYTSSPLPFWFLDLWGRGTLVTVSS
VL: DIQMTQSPSSLSASVGDRVTITCRASQSIGNYLNWYQQKSGKAPKILIYAASSLQSGVPSRFSGSGSGTDFTLTISSLQPEDFATYYCQQTYRTPPEDSFGQGTKVEIK

What was measured:
[1] = biological target: SARS-CoV-2 RBD (SARS-CoV-2); test: ELISA, 100 ng coated RBD, neat supernatant, anti-human IgG-HRP
[2] = biological target: SARS-CoV-1 RBD (SARS-CoV); test: as above
[3] = biological target: SARS-CoV-1 RBD (SARS-CoV); test: sVNT, cPass kit format with SARS-CoV-1 RBD-HRP; HEK293 supernatant
[4] = biological target: SARS-CoV-2 RBD (SARS-CoV-2); test: sVNT, cPass kit with SARS-CoV-2 RBD-HRP; HEK293 supernatant

Row | Binder | Binding SARS-CoV-2 [1] | Binding SARS-CoV-1 [2] | sVNT SARS-CoV-1 (% I) [3] [%] | sVNT SARS-CoV-2 (% I) [4] [%]
1 | B1 | 1.94 | 1.42 | 36.1 | 33.1
2 | B2 | 1.11 | 1.33 | 43.7 | 15.5
3 | B3 | 0.674 | 0.831 | 17.5 | 15.7
4 | B4 | 1.54 | 1.06 | 18.1 | 33.4
5 | B5 | 0.947 | 0.008 | 1.35 | 20.2
6 | B6 | 1.92 | 1.29 | 30.5 | 31.7
7 | B7 | 0.641 | 1.15 | 61.2 | 38.8
8 | B8 | 1.81 | 1.29 | 45.2 | 39.2
9 | B9 | 1.45 | 1.21 | 50.4 | 45
10 | B10 | 1.68 | 1.16 | 11.7 | 32.3
11 | B11 | 1.16 | 0.972 | 20.8 | 14.9
12 | B12 | 1.31 | 1.1 | 15.4 | 22.7
13 | B13 | 1.73 | 1.35 | 52.1 | 46.3
